This passage reports Kd results from article PMC4395133 (Molecular Biology of the Cell, 2015).

Sequences and labels used below:
B1: HIS-tagged recombinant PSPC1 (natural protein, mouse, UniProt Q8R326-1 3-523, looked up)
chain: LRGNLKQVRIEKNPARLRALESAAGESEPVAAAAMALTLAGEQAPPPAPSEEHPDEELGFTIDIKSFLKPGEKTYTQRCRLFVGNLPTDITEEDFKRLFERYGEPSEVFINRDRGFGFIRLESRTLAEIAKAELDGTILKSRPLRIRFATHGAALTVKNLSPVVSNELLEQAFSQFGPVEKAVVVVDDRGRATGKGFVEFAAKPPARKALERCGDGAFLLTTTPRPVIVEPMEQFDDEDGLPEKLMQKTQQYHKEREQPPRFAQPGTFEFEYASRWKALDEMEKQQREQVDRNIREAKEKLEAEMEAARHEHQLMLMRQDLMRRQEELRRLEELRNQELQKRKQIQLRHEEEHRRREEEMIRHREQEELRRQQEGGFKPNYMENREQEMRMGDMGPRGAINMGDAFSPAPAGTQGPPPMMGMNMNNRGTIPGPPMGPGPAMGPEGAANMGTPMIPDNGAVHNDRFPQGPPSQMGSPMGNRTGSETPQAPMSGVGPVSGGPGGFGRGSQGGNFEGPNKRRRY
B2: GST-IMPα4 (natural protein, mouse, UniProt O35343 1-521, looked up)
chain: MADNEKLDNQRLKNFKNKGRDLETMRRQRNEVVVELRKNKRDEHLLKRRNVPQEDICEDSDIDGDYRVQNTSLEAIVQNASSDNQGIQLSAVQAARKLLSSDRNPPIDDLIKSGILPILVHCLERDDNPSLQFEAAWALTNIASGTSEQTQAVVQSNAVPLFLRLLHSPHQNVCEQAVWALGNIIGDGPQCRDYVISLGVVKPLLSFISPSIPITFLRNVTWVMVNLCRHKDPPPPMETIQEILPALCVLIHHTDVNILVDTVWALSYLTDAGNEQIQMVIDSGIVPHLVPLLSHQEVKVQTAALRAVGNIVTGTDEQTQVVLNCDALSHFPALLTHPKEKINKEAVWFLSNITAGNQQQVQAVIDANLVPMIIHLLDKGDFGTQKEAAWAISNLTISGRKDQVAYLIQQNVIPPFCNLLTVKDAQVVQVVLDGLSNILKMAEDQAETIANLIEECGGLEKIEQLQNHENEDIYKLAYEIIDQFFSSDDIDEDPSLVPESVQGGTFGFNSSTNVPTEGFQF

Common to all, as to test: ELISA
Experiment [1] has as its target GST-tagged full-length IMPα2 (mouse, UniProt P52293 1-529).
Experiment [2] has as its target GST-IMPα6 (mouse, UniProt O35345 1-536).
Experiment [3] deals with IMPα2/GST-IMPβ1 heterodimer (tag-free IMPα2 predimerized with GST-IMPβ1) (mouse | , UniProt P52293 1-529; P70168 1-876).
For experiment [4], the target named is IMPα4/GST-IMPβ1 heterodimer (tag-free IMPα4 predimerized with GST-IMPβ1) (mouse | , UniProt O35343 1-521; P70168 1-876).
Experiment [5] addresses IMPα6/GST-IMPβ1 heterodimer (tag-free IMPα6 predimerized with GST-IMPβ1) (mouse | , UniProt O35345 1-536; P70168 1-876).
Experiment [6] has as its target B1.

Sequence of IMPα2/GST-IMPβ1 heterodimer (tag-free IMPα2 predimerized with GST-IMPβ1) (P70168 whole entry, one chain of several): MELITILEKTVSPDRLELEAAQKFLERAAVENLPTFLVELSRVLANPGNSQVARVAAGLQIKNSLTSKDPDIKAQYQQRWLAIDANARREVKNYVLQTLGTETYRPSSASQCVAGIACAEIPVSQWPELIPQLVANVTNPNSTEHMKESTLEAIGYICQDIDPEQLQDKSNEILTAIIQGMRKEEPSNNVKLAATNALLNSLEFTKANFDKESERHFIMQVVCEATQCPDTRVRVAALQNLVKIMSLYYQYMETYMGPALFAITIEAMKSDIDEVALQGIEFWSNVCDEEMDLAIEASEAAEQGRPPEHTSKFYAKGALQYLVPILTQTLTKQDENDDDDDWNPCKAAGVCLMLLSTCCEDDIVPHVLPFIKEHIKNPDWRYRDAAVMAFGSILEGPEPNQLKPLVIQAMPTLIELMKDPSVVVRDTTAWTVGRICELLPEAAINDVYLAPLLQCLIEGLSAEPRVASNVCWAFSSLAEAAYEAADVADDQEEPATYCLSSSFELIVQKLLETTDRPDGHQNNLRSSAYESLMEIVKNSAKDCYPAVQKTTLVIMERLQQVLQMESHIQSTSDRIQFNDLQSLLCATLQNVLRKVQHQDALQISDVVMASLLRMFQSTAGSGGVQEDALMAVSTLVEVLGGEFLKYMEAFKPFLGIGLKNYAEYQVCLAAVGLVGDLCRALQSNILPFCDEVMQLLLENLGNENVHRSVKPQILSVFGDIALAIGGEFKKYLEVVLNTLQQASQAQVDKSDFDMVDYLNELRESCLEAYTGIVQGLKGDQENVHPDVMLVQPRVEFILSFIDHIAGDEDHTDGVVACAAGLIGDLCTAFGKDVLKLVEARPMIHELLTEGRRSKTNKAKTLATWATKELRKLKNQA
Sequence of IMPα4/GST-IMPβ1 heterodimer (tag-free IMPα4 predimerized with GST-IMPβ1) (P70168 whole entry, one chain of several): as above
Sequence of IMPα6/GST-IMPβ1 heterodimer (tag-free IMPα6 predimerized with GST-IMPβ1) (P70168 whole entry, chain 2 of 2): as the sequence (P70168 whole entry, one chain of several) above

Regarding B1, the Kd was found to be 15 nM in experiment [1]; 5.9 nM in experiment [2]; 1.9 nM in experiment [3]; 21.3 nM in experiment [4]; 2.1 nM in experiment [5].
On to B2, for which the Kd in experiment [6] worked out at 57.9 nM.

Usually Kd stands for the concentration at which binding is half-saturated.
